This note sets out measurements from patent US20190201542A1 (AbbVie / Abbott, published 2019).

The target in this assay is T1, human DLL3 (human, UniProt Q9NYJ7 27-492, limits assumed).
T1 construct: also called hDLL3; DLL3 protein
T1 sequence: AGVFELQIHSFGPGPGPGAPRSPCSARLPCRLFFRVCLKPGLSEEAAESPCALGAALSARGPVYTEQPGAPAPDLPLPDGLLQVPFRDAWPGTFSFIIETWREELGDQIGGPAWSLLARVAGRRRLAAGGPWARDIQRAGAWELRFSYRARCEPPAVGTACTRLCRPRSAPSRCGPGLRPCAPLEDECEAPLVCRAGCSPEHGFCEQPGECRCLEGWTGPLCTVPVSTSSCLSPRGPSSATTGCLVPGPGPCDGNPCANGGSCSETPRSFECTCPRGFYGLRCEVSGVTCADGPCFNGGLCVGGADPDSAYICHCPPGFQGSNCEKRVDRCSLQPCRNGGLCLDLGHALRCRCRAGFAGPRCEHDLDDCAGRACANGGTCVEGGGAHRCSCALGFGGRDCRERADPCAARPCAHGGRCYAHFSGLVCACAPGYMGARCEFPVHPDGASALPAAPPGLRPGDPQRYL
Kind of assay: screen on immobilized hDLL3 or h293-hDLL3 cells. An outline of the steps: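 After 10 days in culture, supernatants of single-cell hybridomas from human DLL3-immunized mice were tested on cells and by solid-phase ELISA. A flow-cytometry signal above the control level counted as binding. The ELISA used DLL3-His coated at 0.5 μg/ml, HRP anti-mouse IgG and TMB, with reading at OD 450.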

B1: SC16.19 (antibody, V domains shown)
VH: EVQLQQSGAELVRPGASVKLSCTASGFNIKDSLLHWVKQRPEKGLEWIGWIDPEDGETKYAPNFQDKATITTDSSSNTAYLQLISLTSVDTAIYYCAYGNYVRHFDYWGQGTTLTVSS
VL: DIQMTQSPSSLSASLGGKVTFTCKASQDIHKYVAWYQHKPGKGPRLLIHYTSTLQPGISSRFSGSGSGRDYSFSISNLEPEDIATYYCLQYNNLYTFGGGTKLEIK
notes: murine mAb
Take B1: the binding result is on record as “binds”.

B2: SC16.29 (antibody, V domains shown)
VH: QVQLQQSGAELARPGASVKLSCKASGYTFTDQYINWVKQRTGQGLEWIGEIYPGRGNTYYNEKFKGKATLTADKSSSTAYMQLSSLTSEDSAVYFCAREDGGYDDAWFAYWGQGTLVTVSA
VL: QIVLTQSPAIMSASPGEKVTITCSASSSVSYMHWFQQKPGTSPKLWIYTTSNLASGVPARFSGSGSGTSYSLTVSRMEAEDAATYYCQQRSLYPYTFGGGTKVEIK
notes: murine mAb
For the molecule B2, the binding result is “binds”.

B3: SC16.47 (antibody, V domains shown)
VH: EVQLQQSGPELVKPGASVKISCKASGYSFSRFYMHWVKQSPENSLEWIGEINPSTGGTSYNQKFKGKATLTVDKSSSTAYMQLKSLTSEESAVYYCTRGYGSNCYFDVWGAGTTVTVST
VL: DVVLTQSPLSLPVNIGDQASISCKSTKSLLNSDGFTYLDWYLQRPGQSPQFLIYLVSNRFSGVPDRFSGSGSGTDFTLKISRVEAEDLGVYYCFQSNYLPLTFGAGTKLELR
notes: murine mAb
Take B3: the binding result is recorded as “binds”.

B4: SC16.49 (antibody, V domains shown)
VH: QVQLQQSGPELVKPGTLVKISCKASGYTFTSYDINWVKQRPGQGLEWIGWIYPGDGNTKYSEKFKGKATLTADKSSSTAYMQLTSLTSENSAVYFCARDYDYPFAYWGQGTLVTVSA
VL: DIKMTQSPSSMYASLGERVTITCKASQDINSYLSWFQQKPGKSPKTLIYRANRLVDGVPSRFSGSGSGQDYSLTITSLEYEDMGIYYCLQYDEFPLTFGAGTKLELK
notes: murine mAb
For B4, the binding result is “binds”.

B5: SC16.22 (antibody, V domains shown)
VH: QVQLQQPGAELVKPGASVKLSCKASGYTFTTYWMHWVKQRPGQGLEWIGEIDPSDSYTYYNQKFKGKATLTVDKSSSTAYMQLSSLTSEDSAVYYCARGDYGNPYAMDYWGQGSSVTVSS
VL: DIQMTQTTSSLSASLGDRVTISCRASQDIKNYLNWYQQKPDGTVKPLIYYTSRVHSGVPSRFSGSGSGTDYSLTISNLEQEDIATYFCQQGYTLPFTFGSGTKLEIK
notes: murine mAb
As for B5, the binding result is reported as “binds”.

B6: SC16.42 (antibody, V domains shown)
VH: QIQLVQSGPELKKPGETVKISCKASGYTFTTAGMQWVQKMPGKGFKWIGWINTHSGEPKYADDFKGRFAFSLETSASTAYLQISNLKDEDTATFFCAPLWSDSSFAYWGQGTLVTVSA
VL: DVLMTQSPLSLSVSLGDQASISCRSSQNIVHSDRYTYLEWYLQKPGQSPKLLIYGVSNRFSGVPDRFSGSGSGTDFTLKISRVEAEDMGVYYCFQGTHVPYTFGGGTKLEIK
notes: murine mAb
For the molecule B6, the binding result was “binds”.

B7: SC16.20 (antibody, V domains shown)
VH: QVQLQQSGTELVRPGTSVRVSCKASGYAFGNHLIEWVKQRPGQGLEWIGVINPGTGGTHYNEKFKDKARLTADKSSNTAYMHLNSLTSDDSAVYFCARSPYDYHEGAMDYWGQGTSVTVSS
VL: EIQMTQSPSSMSASLGDRITITCQATQDIVKNLNWYQQKPGKPPSFLIYYATELAEGVPSRFSGSGSGSDYSLTIRNLESEDFADHYCLQFYEFPFTFGAGTKLELK
notes: murine mAb
In the case of B7, the binding result is “binds”.

B8: SC16.45 (antibody, V domains shown)
VH: QVQLQQSGADLVRPGTSVKVSCKASGYSFTNYLIEWVKQRPGQGLEWIGVINPGSGGTHYNEKFKDKAVLTADKSSTTAHMQLSSLTSDDSAVYFCARSPYDYNDGAMDYWGQGTSVTVSS
VL: EIQMTQSPSSMSASLGDRITITCQATQDIVKNLNWYQQKPGKPPSFLIYYATELAEGVPARFSGSGSGSDYSLTISNLESEDFADYHCLQFYEFPFTFGAGTKLELK
notes: murine mAb
Consider B8, for which the binding result is “binds”.

B9: SC16.21 (antibody, V domains shown)
VH: QVQLQQSGPELVKPGASVKISCKASGYAFSSSWMNWVKQRPGKGLEWIGRIYPGDGDTNYNGKFKGKATLTADKSSSTAYMQLSSLTSEDSAVYFCAMGIYNYDGSRYYSMDYWGQGTSVTVSS
VL: DIVMTQSPSSLAMSVGQKVTMSCKSSQSLLNSSNQKNYLAWYQQEPGQSPKLLVSFASTRESGVPDRFTGSGSGTDFTLTISGVQAEDLAVYYCQQHYSIPLTFGAGTKLELK
notes: murine mAb
As to B9, the binding result is “binds”.

B10: SC16.3 (antibody, V domains shown)
VH: QVTLKESGPGILQPSQTLSLTCSFSGFSLSTSGMGVGWIRQPSGKGLEWLAHIWWDDVKRYNPALKSRLTISKDTSSSQVFLKIASVDTADTATYYCARIADYGGDYYAMDYWGQGTSVTVSS
VL: QIVLTQSPAIMSVSLGERVTMTCTASSSVSSSYLHWYQQKPGSSPKLWIYSTSNLASGVPARFSGSGSGTSYFFTISSMEAEDAATYYCHQYHRSPFTFGAGTKLKIR
notes: murine mAb
For the molecule B10, the binding result is on record as “binds”.

B11: SC16.30 (antibody, V domains shown)
VH: QVTLKESGPGILQPSQTLSLTCSFSGFSLSTSGMGVGWIRQPSGKGLEWLAHIWWDDVKRYKPALKSRLTVSKDTSSNQVFLKIATVDAADTGTYYCARIVDGHPPFAYWGQGTLVTVSA
VL: QIVLTQSPTIMSASLGERVTMTCTASSSVTSSYLHWYQQKPGSSPKLWIYSTSNLASGVPARFSGSGSGTSYSLTISSMEAEDAATYYCHQFHRSPFTFGSGTKLEIK
notes: murine mAb
B11: the binding result was “binds”.

B12: SC16.38 (antibody, V domains shown)
VH: EVQLQQSGAELVKPGASVKLSCTVSGFNIKDTYIHWVKQRPEQGLEWIGRIDPANGNTKYDPKFQGKATITADTSSNTAYLQLSSLTSEDTAVYYCARPTGYFEYWGQGTTLTVSS
VL: QIVLTQSPAIMSASPGEKVTMTCSASSSINYMHWYQQKPGTSPKRWIYDTSKLASGVPARFSGSGSGTSYSLTISSMEAEDAATYYCHQRSTWTFGGGTKLEIK
notes: murine mAb
Take B12: the binding result was “binds”.

B13: SC16.52 (antibody, V domains shown)
VH: QVQLKESGPGLVAPSQSLSITCAVSGFSLTSFAIHWFRKPPGKGLEWLGVIWTGGTTNYNSALMSRLSISKDNSKSQVFLKMNSLQTDDTAMYYCARDDYDNNYAMDYWGQGTSVTVSS
VL: DIQMIQSPSSMFASLGDRVSLSCRASQGIRGTLDWYQQKPNGTIKLLIYSTSNLNSGVPSRFSGSGSGSDYSLTISSLESEDFADYYCLQRNAYPLTFGAGTKLELK
notes: murine mAb
B13: the binding result is recorded as “binds”.

B14: SC16.18 (antibody, V domains shown)
VH: EVKLEESGGGLVQPGESMKLSCAASGFTFSDAWMDWVRQSPEKGLEWVAEIRNKANNHATYYAESVKGKFTISRDDSKSRVYLQMNNLRAADTGIYYCTAYSNFAYWGQGTLVTVST
VL: DIQMTQTTSSLSASLGDRVTISCRASQNIINYLNWYQQKPDGTVKLLIYYTSRLHSGVPSRFSGSGSGTDYSLTISNLEPEDIATYYCQQYSERPYTFGGGTKLEIK
notes: murine mAb
As to B14, the binding result is given as “binds”.

B15: SC16.35 (antibody, V domains shown)
VH: DVQLQESGPGLVKPSQSLSLTCTVTGYSITSDYAWNWIRQFPGNKLEWMGYISYSGSTSYNPSLKSRISITRDTSKNQFFLQLNSVTTEDTATYYCARFYYGSSYAMDYWGQGTSVTVSS
VL: DIQMTQTTSSLSASLGDRVTISCRASQDISNYLNWYQQKPDGTVKLLIYYTSRLHSGVPSRFSGSGSGTDYSLTISNLEQEDIATYFCQQGNTLPYTFGGGTKLEIK
notes: murine mAb
Consider B15, for which the binding result is reported as “binds”.

B16: SC16.4 (antibody, V domains shown)
VH: QIQLVQSGPELKKPGETVKISCKASGYTFTDYSMHWVKQAPGKGLKWMGWINTETGEPGYADDFKGRFAFSLETSASTAYLQINNLKNEDTATYFCARYDGYAMDYWGQGTSVTVSS
VL: DIQMTQTTSSLSASLGDRVTISCRASQDISNYLNWYQQKPDGTVKLLIYYTSRLHSGVPSRFSGSGSGTDYSLTISNLELEDIATYFCQQGDMLPWTFGGGTKLEIK
notes: murine mAb
As for B16, the binding result was “binds”.

B17: SC16.41 (antibody, V domains shown)
VH: EVKLEESGGGLVQFGGSMKLSCAASGFTFSDAWMDWVRQSPEKGLEWVAEIRNKANNHATYYPESVKGRFTISRDDSKSRVYLQMNNLRAEDTGIYYCTGYSSFAYWGQGTLVTVSA
VL: DIQMTQTTSSLSASLGDRVTISCRASQDVINYLNWYQQKPDGTVKLLIYYTSRLHSGVPSRFSGSGSRTDYSLTISNLEPEDIATYYCQQYSERPYTFGGGTKLEIK
notes: murine mAb
In the case of B17, the binding result is listed as “binds”.

B18: SC16.5 (antibody, V domains shown)
VH: QVTLKESGPGILQPSQTLSLTCSFSGFSLSTSGMGVGWIRQPSGEGLEWLADIWWDDNKYYNPSLKSRLTISKDTSSNQVFLKITSVDTADTATYYCARRVNYVYDPYYAMDYWGQGTSVTVSS
VL: QIVLTQSPAIMSASPGEKVTMTCSASSSVSYMHWYQQKSGTSPKRWIYDTSKLASGVPARFSGSGSGTSYSLTISSMEAEDAATYYCQQWTRNPLTFGAGTKLELK
notes: murine mAb
In the case of B18, the binding result was “binds”.

B19: SC16.25 (antibody, V domains shown)
VH: QVTLKESGPGILQPSQTLSLTCSFSGFSLSTSGMGVGWIRQPSGEGLEWLTDIWWDDNKYYNPSLKSRLTISKDTSSNQVFLNITSVDTADTATYYCARRVNYYYDPYYAMDYWGQGTSVTVSS
VL: QIVLTQSPAIMSASPGEKVTMTCSASSSVSYMHWYQQKSGTSPKRWIYDSSKLASGVPARFSGSGSGTSYSLTISSMEAEDAATYYCQQWSSNPLTFGAGTKLELK
notes: murine mAb
For B19, the binding result is “binds”.
